Reference: US8058228B2, “Leptin peptide antagonists” (Boston Biomedical Research Institute, priority 2004, dated 2011)

Target: T1, OB-R (Homo sapiens, UniProt P48357)
T1 construct: After confirming via Western that the primary EEC and ESC and endometrial cell lines utilized herein had OB-R; endogenous in cells; host or cells: primary human EEC and ESC; Ishikawa (ECACC 9832301) and HES cell lines
T1 sequence (P48357 22-1165): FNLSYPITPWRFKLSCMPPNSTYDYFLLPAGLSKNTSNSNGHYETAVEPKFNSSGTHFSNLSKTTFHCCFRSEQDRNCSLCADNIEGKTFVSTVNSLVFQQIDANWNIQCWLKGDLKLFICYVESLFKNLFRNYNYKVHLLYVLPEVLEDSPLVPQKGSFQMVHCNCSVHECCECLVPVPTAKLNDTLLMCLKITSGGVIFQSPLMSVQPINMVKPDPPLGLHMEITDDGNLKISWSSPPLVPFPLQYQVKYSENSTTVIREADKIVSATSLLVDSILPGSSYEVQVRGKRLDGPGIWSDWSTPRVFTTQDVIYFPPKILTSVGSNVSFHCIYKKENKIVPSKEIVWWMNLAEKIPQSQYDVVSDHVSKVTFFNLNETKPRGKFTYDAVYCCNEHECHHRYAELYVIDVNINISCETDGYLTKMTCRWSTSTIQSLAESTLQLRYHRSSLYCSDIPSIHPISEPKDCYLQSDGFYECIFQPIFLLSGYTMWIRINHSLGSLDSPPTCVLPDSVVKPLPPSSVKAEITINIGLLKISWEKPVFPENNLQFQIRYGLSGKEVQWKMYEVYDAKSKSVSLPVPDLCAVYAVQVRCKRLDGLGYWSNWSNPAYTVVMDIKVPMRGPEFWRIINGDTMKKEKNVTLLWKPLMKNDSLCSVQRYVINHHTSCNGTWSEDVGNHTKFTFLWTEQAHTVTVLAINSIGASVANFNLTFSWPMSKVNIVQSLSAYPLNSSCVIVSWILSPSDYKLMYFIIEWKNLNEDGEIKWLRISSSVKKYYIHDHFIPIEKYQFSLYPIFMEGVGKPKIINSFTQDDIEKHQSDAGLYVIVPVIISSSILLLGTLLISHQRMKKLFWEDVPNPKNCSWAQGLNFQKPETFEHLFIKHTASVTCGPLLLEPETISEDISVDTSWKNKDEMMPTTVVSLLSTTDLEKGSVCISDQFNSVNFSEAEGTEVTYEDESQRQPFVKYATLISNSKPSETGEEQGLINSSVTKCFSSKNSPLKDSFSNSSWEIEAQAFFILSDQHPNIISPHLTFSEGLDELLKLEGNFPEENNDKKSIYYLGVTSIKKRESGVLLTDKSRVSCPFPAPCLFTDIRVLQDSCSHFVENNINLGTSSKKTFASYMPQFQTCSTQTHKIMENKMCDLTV
Assay: LIF-R levels in human endometrial cells (immunoprecipitation/Western blot)
Format: cell-based
Settings: for effect on leptin-induced increase of LIF-R levels: leptin 62 nM, peptide 300 nM, 24 h; for leptin-induced expression of LIF-R: leptin 3-62 nM
Protocol: Primary human endometrial cells (ESC and EEC) were cultured for 5-9 days in DMEM-F12 medium containing 5% fetal bovine serum (FBS), 5 μg/ml insulin, 1% amphopthericin B, 100 μg/ml streptomycin and 100 U/ml penicillin until they were 80% confluent. Two types of endometrial epithelial cell lines, HES (originally derived from a benign proliferative endometrium) and Ishikawa (human endometrial epithelial adenocarcinoma, ECACC 9832301, Wiltshire, England) were cultured under the same conditions described above. The cells were washed twice with 100 mM phosphate saline buffer (PBS), pH 7.2 and cultured for additional 2 days in the same medium but without FBS (basal medium). Cells were washed as described before and cultured in basal medium containing leptin (0, 3, 10 or 62 nM) or IL-1β (0.6, 3 and 10 nM).
The anti-OB-R antibody (10 and 20 μg/ml) and LPA-2, a specific inhibitor of OB-R (3, 120, 300 nM or 30 μM) were used to assess whether leptin-induced effects were regulated primarily by the OB-R. Non-specific species-matched IgGs to the OB-R antibody and a scrambled version of LPA-2 (LPA-2Sc) served as negative controls (Gonzalez and Leavis, Endocrine 21: 185-195 (2003)). Inhibitors of IL-1R were used (monoclonal antibody anti-IL-1R tl and IL-1Ra) to assess whether leptin activated IL-1 induced signaling pathways or just activated similar components responsible for LIF/LIF-R expression. Treatment with the cytokine, inhibitor or the two combined was implemented for 5, 15, 30 and 60 min, and 24 and 48 h. The cells were prepared for Western blot analysis. The conditioned media was collected, lyophilized and stored at −80° C. until analysis for LIF, IL-1β and IL-1Ra by ELISA could be performed. Duplicate wells were run for each treatment and the experiments repeated at least three times with different cell preparations.
Endometrial cells were washed with ice-cold PBS and lysed by homogenization on ice with lysis buffer A [[…] Tris, pH 7.4, containing 137 nM NaCl, 2 mM EDTA, 10% glycerol, 50 mM β-glycerophosphate, 1% Nonidet P-40 and a mixture of proteases and phosphatase inhibitors composed of 100 μM antipain, 0.1 mg/ml trypsin inhibitor, protease inhibitor cocktail 1:50 (Sigma), 50 nM NaF, 2 mM phenyl-methylsulfonyl fluoride, and 2 mM sodium orthovanadate]. Cellular lysates were centrifuged at 2400 g at 4° C. for 10 min. For nuclear lysates the cells were scraped from the culture plates and homogenized with lysis buffer B (10 nM Tris, pH 7.4, 0.25 M sucrose, 0.1 mM EDTA containing the same mixture of protease and phosphatase inhibitors as buffer A). Protein concentrations were determined using the Bradford protein assay (BioRad Laboratories Inc., Hercules, Calif.).
30 μg of protein from nuclear or cellular lysates were incubated in ependorf tubes containing 0.5 μg of primary antibodies (anti-LIF-R, OB-R, STAT3 and p-STAT3 diluted in buffer A) for 2 h at 4° C. under constant stirring. The immuno-complexes were incubated with 20 μl of Protein G-Agarose (Amersham Pharmacia Biotech) diluted 1:1 with buffer A for a 2 additional hours under constant stirring. The beads were centrifuged for 1 min at 1000 g and washed with buffer A containing 0.5 M NaCl followed by a final wash with buffer A.
Cellular lysates and their immunoprecipitates containing 10-30 μg of protein plus Laemmli buffer (1:1) were incubated at 95° C. for 5 min. Electrophoresis was performed at 220 V for 5 min followed by 130 V for 45 min (BioRad, electrophoresis apparatus) on 7.5% (for STAT3, p-STAT3, LIF-R and IL-1R tl) and 10% (for OB-R) SDS-PAGE gels. Nuclear lysates were also used to detect p-STAT3. Electroblotting onto 0.2 μm nitrocellulose membranes was performed at 22 V overnight at 4° C. in 48 nM Tris-39 nM glycine buffer containing 0.037% SDS and 20% methanol. […]

Substance | effect on leptin-induced increase of LIF-R levels (Ishikawa cells) | leptin-induced expression of LIF-R (HES cells) | leptin-induced expression of LIF-R (Ishikawa cells) | leptin-induced expression of LIF-R (primary EEC) | leptin-induced expression of LIF-R (primary ESC)
SRNVIQISNDLENLRDLLHVLAFSKS [LPA-2, 26 amino acid peptide, residues 70-95 of helix III of the human leptin molecule; leptin peptide antagonist] | reduced the leptin-induced increase | – | – | – | –
VAEVLNRSDLIQRISFSLDLNNSKLH [LPA-2Sc, scrambled version of LPA-2, negative control, reference compound] | had no effect on LIF-R levels | – | – | – | –
leptin: human recombinant leptin (R&D Systems), OB-R ligand used as stimulus | – | 1.3-2 fold | 1.5-3 fold | 1.7-8 fold | 1.4-3.2 fold
